In one assay the target is T1, cynomolgus RSPO2 (cynomolgus, UniProt G7PCH9 22-243).
T1 construct: also called cynoRSPO2; rcynoRSPO2
Briefly: SPR (Biacore) with the Fab; table row RSPO2, Affinity (nM) Fab. As for the experimental part:
(§1) For kinetic measurements, two-fold serial dilutions of anti-RSPO Fabs were injected in HBS-P buffer (0.01M HEPES pH 7.4, 0.15M NaCl, 0.005% surfactant P20) at 25° C. with a flow rate of 30 μl/min. Association rates (kₒₙ) and dissociation rates (koff) were calculated using a simple one-to-one Langmuir binding model (BIAcore Evaluation Software version 3.2). The equilibrium dissociation constant (KD) was calculated as the ratio koff/kₒₙ.
(§2) Surface plasmon resonance was used to confirm binding specificities and affinities to human, mouse, and cynomolgus RSPOs. Fab fragments from antibody clones were digested, purified, and then assayed using a BIAcore™-2000 instrument for binding to recombinant proteins. Antibodies fell into three groups: those specific to RSPO2, those specific to RSPO3, and those with some degree of cross-reactivity (FIG. 5).
(Surface plasmon resonance follows binding to a sensor surface in real time, without labels.)

In another assay the target is T2, mouse RSPO2 (mouse, UniProt Q8BFU0 22-205, limits assumed).
T2 construct: also called mRSPO2
Described as above. How it is done: as §1, §2

For assay [1], the target named is T3, mouse RSPO3 (mouse, UniProt Q2TJ95 22-277, limits assumed).
T3 construct: also called mRSPO3; murine RSPO3
T3 sequence (looked up): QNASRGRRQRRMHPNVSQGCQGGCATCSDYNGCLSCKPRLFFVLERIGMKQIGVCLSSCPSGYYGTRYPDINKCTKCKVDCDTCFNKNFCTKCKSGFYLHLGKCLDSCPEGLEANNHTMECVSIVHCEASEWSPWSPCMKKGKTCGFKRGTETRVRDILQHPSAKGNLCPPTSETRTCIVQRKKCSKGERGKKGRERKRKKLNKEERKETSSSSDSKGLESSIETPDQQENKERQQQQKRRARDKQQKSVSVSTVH
As to the kind of experiment: SPR (Biacore) with the Fab; table row RSPO3, Affinity (nM) Fab. How it is done: as §1, §2

For assay [2], the target named is T4, cynomolgus RSPO3 (cynomolgus, UniProt A0A2K5UTQ7 22-273).
T4 construct: also called cynoRSPO3; rcynoRSPO3
T4 sequence: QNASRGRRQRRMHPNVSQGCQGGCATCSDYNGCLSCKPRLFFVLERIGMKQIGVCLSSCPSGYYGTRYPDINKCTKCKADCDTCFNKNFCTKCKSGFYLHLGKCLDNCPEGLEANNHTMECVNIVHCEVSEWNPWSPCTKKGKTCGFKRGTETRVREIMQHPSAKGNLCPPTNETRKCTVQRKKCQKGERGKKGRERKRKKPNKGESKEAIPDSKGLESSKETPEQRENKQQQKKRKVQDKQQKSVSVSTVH
The description is as above. As for the experimental part:
as §1, §2

Assay [3] addresses T5, recombinant human RSPO3 (human, UniProt Q9BXY4 22-272).
T5 construct: also called rhRSPO3; hRSPO3
T5 sequence: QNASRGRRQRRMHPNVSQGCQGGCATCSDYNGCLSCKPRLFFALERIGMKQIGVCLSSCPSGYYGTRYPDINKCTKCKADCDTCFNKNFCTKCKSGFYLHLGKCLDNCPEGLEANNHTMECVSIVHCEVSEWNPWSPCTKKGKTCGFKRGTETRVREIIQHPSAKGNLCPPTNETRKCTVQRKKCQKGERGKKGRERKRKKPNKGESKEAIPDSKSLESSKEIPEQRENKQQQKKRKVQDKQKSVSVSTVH
Described as above. How it is done: as §1, §2

The target of a further assay is T6, recombinant human RSPO2 (human, UniProt Q6UXX9 22-243).
T6 construct: Recombinant protein of the WNT reporter assays and of the Octet binning (R&D Systems; biotinylated for Octet); also called rhRSPO2; hRSPO2
Briefly: SPR (Biacore) with the Fab; table row RSPO2, Affinity (nM) Fab. As for the experimental part: as §1, §2

Assay [4] addresses T4, cynomolgus RSPO3. Briefly: SPR, BIAcore T200, cyno RSPO3 immobilized, antibody injected. As for the experimental part: (§3) The binding affinity of the antibodies in this section was determined by BIAcore™ T200 Format. Briefly, BIAcore™ research grade CMS chips were activated with 1-ethyl-3-(3-dimethylaminopropyl) carbodiimide (EDC) and N-hydroxysuccinimide (NETS) reagents according to the supplier's instructions. huRSPO3 was immobilized to achieve approximately 50 response units (RU) in each flow cell. Unreacted coupling groups were blocked with 1M ethanolamine. For kinetics measurements, Four-fold serial dilutions of variant antibody was injected in HBS-P buffer (0.01M HEPES pH7.4, 0.15M NaCl, 0.005% surfactant P20) at 25° C. with a flow rate of 30 μl/min. Association rates (kon) and dissociation rates (koff) were calculated using a 1:1 Langmuir binding model (BIAcore™ T200 Evaluation Software version 2.0). The equilibrium dissociation constant (Kd) was calculated as the ratio koff/kon.
(§4) The hu5D6v4.1 and the chimeric 5D6 were tested for their ability to bind cyno and mouse RSPO3 as described above except that cyno or murine RSPO3 replaced huRSPO3 in the binding assay. Binding properties for the humanized antibodies are shown below in Table 5.

In assay [5] the target is T5, recombinant human RSPO3. Briefly: SPR, BIAcore T200, huRSPO3 immobilized, antibody injected. How it is done:
as §3

Assay [6] concerns the target T3, mouse RSPO3. Briefly: SPR, BIAcore T200, murine RSPO3 immobilized, antibody injected. As for the experimental part:
as §3, §4

Assay [7] concerns the target T7, FLAG-tagged human RSPO3 (Genentech) (human, UniProt Q9BXY4 22-272).
T7 construct: also called hRSPO3; RSPO3 coated plates; not shown: FLAG tag
T7 sequence: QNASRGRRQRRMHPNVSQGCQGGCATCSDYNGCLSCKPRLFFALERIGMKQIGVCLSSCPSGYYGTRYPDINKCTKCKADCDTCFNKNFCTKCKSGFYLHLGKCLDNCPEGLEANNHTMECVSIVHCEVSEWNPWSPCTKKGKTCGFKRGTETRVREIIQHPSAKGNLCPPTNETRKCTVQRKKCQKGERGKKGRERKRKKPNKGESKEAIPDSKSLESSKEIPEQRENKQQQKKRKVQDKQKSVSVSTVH
Briefly: competitive binding ELISA: titrated against biotinylated RNF43-Flag (RNF43-ECD) binding to plate-coated hRSPO3; signal = bound RNF43, normalized OD. Background: In an ELISA, binding on a coated surface is turned into a signal by an enzyme label.

For assay [8], the target named is T8, FLAG-tagged human RSPO2 (Genentech) (human, UniProt Q6UXX9 22-243).
T8 construct: also called hRSPO2; RSPO2 coated plates; not shown: FLAG tag
As to the kind of experiment: competitive binding ELISA: titrated against biotinylated RNF43-Flag (RNF43-ECD) binding to plate-coated hRSPO2; signal = bound RNF43, normalized OD.

T2 sequence (Q8BFU0 22-205 limits assumed): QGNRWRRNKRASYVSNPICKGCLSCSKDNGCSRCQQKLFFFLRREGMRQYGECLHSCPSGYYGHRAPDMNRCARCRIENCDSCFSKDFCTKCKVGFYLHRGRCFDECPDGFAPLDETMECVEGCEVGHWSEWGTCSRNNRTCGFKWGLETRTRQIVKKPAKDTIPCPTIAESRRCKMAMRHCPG
T6 sequence (Q6UXX9 22-243): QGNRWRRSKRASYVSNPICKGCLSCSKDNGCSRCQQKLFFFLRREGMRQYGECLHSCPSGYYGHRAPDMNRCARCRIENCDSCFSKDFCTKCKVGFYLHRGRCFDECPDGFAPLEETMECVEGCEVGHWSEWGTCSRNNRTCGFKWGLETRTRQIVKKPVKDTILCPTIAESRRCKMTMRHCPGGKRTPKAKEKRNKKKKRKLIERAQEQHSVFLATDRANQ
T1 sequence (G7PCH9 entry or part of it): as the sequence (Q6UXX9 22-243) above, with V160A, L165P, T178A counted along it
T8 sequence (Q6UXX9 22-243): as the sequence (Q6UXX9 22-243) above

B1: 5E11 (Fab, V domains shown)
VH: QVQLKQSGPGLVQPSQSLSITCTVSGFSLSSYAVHWVRQSPGEGLEWLGVIWSGGSTDYNAAFISRMSITKDNSKSQVFFKMNSLQADDTAIYFCARNDGYYYFDYWGQGTTLTVSS
VL: DIVMTQSTSSLSASLGDRVTISCRASQDISNYLNWYQQKPDGTVKLLIYYTSRLHSGVPSRFSGSGSGTDYSLTISNLEKEDVATYFCQHGDTLPPTFGGGTKLEIK
notes: also called Fab of 5E11; 5E11 Fab
By Kd is commonly meant the concentration at which binding is half-saturated. On to B1, for which the binding result with cynomolgus RSPO2 and with mouse RSPO2 was “no binding” each time. Further, the figures for the Kd with mouse RSPO3 [1], in the assay with cynomolgus RSPO3 [2] and in the assay with recombinant human RSPO3 [3] were 98 nM, 39 nM and 10.6 nM, respectively.

B2: 5C2 (Fab, V domains shown)
VH: EVQLQESGPGLVAPSQSLSITCTVSGFSLTSYGVHWVRQPPGKGLEWLGVIWTGGSTNYNSALMSRLSISKDNSKSQVFLKMNSLQTDDTAMYYCARVDGYYYFDYWGQGTTLTVSS
VL: DIVMTQSTSSLSASLGDRVTISCRASQDISNYLNWYQQKPDGTVKLLIYYTSRLHSGVPSRFSGSGSGTDYSLTISNLEPEDIATYFCQQGDTLPPTFGGGTKLEIK
notes: also called Fab of 5C2; 5C2 Fab
For B2, the binding result with cynomolgus RSPO2 and in the assay with mouse RSPO2 was “no binding” throughout. Further, the values for the Kd with mouse RSPO3 [1], with cynomolgus RSPO3 [2] and with recombinant human RSPO3 [3] were 63 nM, 70 nM and 17 nM, respectively.

B3: 11F11 (Fab, V domains shown)
VH: QVQLQQSGPQLVKPGFSVKFSCKASGITFTEYYVTWVKQRAGQGLEWVGDIDPENGDTDYNQKFQGKATITADKSSSTAYMELSSLTSEDSAVYYCATGYDYAFDSWGQGTLVTVSS
VL: QPVLTQSPSASASLGASVKLTCTLSSQHSSYGITWLQQHPDKAPKCVMYLRSDGSHSKGDGIPDRFSGSSSGAHRYLSISNVQPEDEAIYFCVTYDSTVGVFGSGTQLTVP
notes: also called Fab of 11F11; 11F11 Fab
In the case of B3, in the assay with recombinant human RSPO2, the Kd came to 63 nM. For the same molecule, the binding result with mouse RSPO2, with mouse RSPO3 [1], with cynomolgus RSPO3 [2] and with recombinant human RSPO3 [3] was “no binding” in each case.

B4: Fab 26E11 (Fab, V domains shown)
VH: EVQLQESGPSLVKPSQTLSLTCSVTGDSITSGYWSWIRKFPGNKLEFMGYISFSGKTYYIPSLKSRVSITRDTSKNQYYLQLNSVTTEDTATYYCATYHGYGGPWFAYWGQGTLVTVSS
VL: DIKMTQSPSSMYASLGERVTITCKASQDIDSYLSWFQQKPGKSPKTLIYLTNRLIDGVPSRFSGSGSGQDYSLTINSLEYEDMGIYYCLQYDEFPVTFGAGTRLEIK
notes: Fab expressed in E. coli for crystallography; also called 26E11 Fab
Consider B4, for which the Kd with cynomolgus RSPO2 was found to be 62 nM; in the assay with recombinant human RSPO2 it was 80 nM; with mouse RSPO2, 66 nM; with mouse RSPO3 [1], 1.42 nM; in the assay with cynomolgus RSPO3 [2], 2.43 nM; with recombinant human RSPO3 [3] it was 0.7 nM.

B5: hu5D6v4.1 (Fab, V domains shown)
VH: EVQLVESGPGLVKPSETLSLTCTVSGDSITSGYWNWIRQPPGKGLEWIGYISYSGKTYQNPSLKSRVTISRDTSKNQFSLKLSSVTAADTAVYYCATYYGYGGPWFAYWGQGTLVTVSS
VL: DIQMTQSPSSLSASVGDRVTITCKASQDIDSYLSWFQQKPGKAPKTLIYLTNRLVDGVPSRFSGSGSGTDYTLTISSLQPEDFATYYCLHYDEFPLTFGQGTKVEIK
notes: Humanized 5D6 variant; also called v1+T69 (LC)+(W47+I48+V67+F78 (HC))
What is called koff is the rate constant with which the complex falls apart. What is called kon is the rate constant with which the complex forms. In the assay with cynomolgus RSPO3 [4], B5 returned a Kd of 0.0811 nM, a koff of 0.000434 s⁻¹ and a kon of 5.35e+06 M⁻¹ s⁻¹. Moreover, in the assay with recombinant human RSPO3 [5], the Kd was 0.0635 nM, the koff is 0.000229 s⁻¹ and the kon worked out at 3.6e+06 M⁻¹ s⁻¹. In the assay with mouse RSPO3 [6], this molecule gave a Kd of 0.0993 nM, a koff of 0.000423 s⁻¹ and a kon of 4.26e+06 M⁻¹ s⁻¹.

B6: RNF43 (receptor)
chain: GFGRTGLVLAAAVESERSAEQKAIIRVIPLKMDPTGKLNLTLEGVFAGVAEITPAEGKLMQSHPLYLCNASDDDNLEPGFISIVKLESPRRAPRPCLSLASKARMAGERGASAVLFDITEDRAAAEQLQQPLGLTWPVVLIWGNDAEKLMEFVYKNQKAHVRIELKEPPAWPDY
notes: kept apart from the biotinylated tracer m34; not shown: FLAG tag and any linker to it
B6: the “IC50 (read off the curve)” value in assay [7] was roughly 0.5 µg/mL; in [8] it was roughly 0.2 µg/mL.

B7: 36D2 (Fab, V domains shown)
VH: QIQLQESGPGLVKPSQSLSLTCSVTGNSITSSDWSWIRQFPGKKLEWMGYMNYGGGTYYNPSLENRISITRDTSKNQFFLHLKSVTTEDTATYYCARERPHPYAYFDVWGQGIQVTVSS
VL: ELVFTQPQSVSGSLGQEISISCTRSSGNIGSNYVSWYQQQSSNKPRLLIYKFDQRPSGVPDRFSGSTDSSSNSGILTISRLQPEDEGDYYCLSGYDKYVFGSGTQLTLL
notes: also called Fab of 36D2; 36D2 Fab
Consider B7, for which the Kd was determined as 11 nM in the assay with cynomolgus RSPO2, 6.3 nM in the assay with recombinant human RSPO2 and 5.5 nM in the assay with mouse RSPO2. Moreover, the binding result with mouse RSPO3 [1], with cynomolgus RSPO3 [2] and with recombinant human RSPO3 [3] was “no binding” in each case.

B8: 1A1 (Fab, V domains shown)
VH: EVQLVESGGGLVKPEGSLKLSCVASGFTFSDYFMSWVRQAPGQGLEWVAHIYTKTYNYATYYSGSVKGRFSISRDDSRNMVYLQMNNLRTEDTATYYCTTDEDWYFDFWGQGTQVTVSS
VL: QPVLTQSPSVSASLGASVKLTCTLSSQHSTNYIEWYQQHPDKSPKFLMQVRDGSHSKGDGTPDRFSGSSSGAHRYLSISNLQLEDEAIYYCGLSDVSLYLFGSGTQLTLL
notes: also called Fab of 1A1; 1A1 Fab
Consider B8, for which the Kd in the assay with cynomolgus RSPO2 worked out at 1.4 nM; with recombinant human RSPO2, 2.9 nM; with mouse RSPO2, 3.6 nM. For the same molecule, the binding result with mouse RSPO3 [1], with cynomolgus RSPO3 [2] and in the assay with recombinant human RSPO3 [3] was “no binding” each time.
